Measurements from US20250051476A1 (ABDERA THERAPEUTICS, published 2025).

T1: DLL3 on cells (SHP-77, NCI-H82, HEK-DLL3, membrane proteome array cells) (human, UniProt Q9NYJ7 27-618)
T1 construct: whole, on cells; also called hDLL3
T1 sequence (looked up): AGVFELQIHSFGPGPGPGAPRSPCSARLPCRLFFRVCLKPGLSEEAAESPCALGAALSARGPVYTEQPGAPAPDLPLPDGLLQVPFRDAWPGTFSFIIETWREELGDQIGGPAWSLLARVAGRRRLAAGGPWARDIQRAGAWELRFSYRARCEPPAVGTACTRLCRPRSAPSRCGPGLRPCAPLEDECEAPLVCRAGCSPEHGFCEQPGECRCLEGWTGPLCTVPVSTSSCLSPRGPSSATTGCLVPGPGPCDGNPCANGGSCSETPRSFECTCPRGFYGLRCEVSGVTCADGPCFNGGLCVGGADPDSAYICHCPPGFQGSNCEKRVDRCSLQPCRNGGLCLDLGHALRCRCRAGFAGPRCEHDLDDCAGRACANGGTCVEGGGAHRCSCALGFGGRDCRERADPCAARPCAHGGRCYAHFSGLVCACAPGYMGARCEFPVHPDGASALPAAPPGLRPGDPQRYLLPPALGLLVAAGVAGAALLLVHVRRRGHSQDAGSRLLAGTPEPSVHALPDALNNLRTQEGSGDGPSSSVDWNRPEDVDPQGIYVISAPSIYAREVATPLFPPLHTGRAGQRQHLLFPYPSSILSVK

T2: mouse DLL3 (mouse, UniProt O88516 25-477, limits assumed)
T2 construct: also called mDLL3; murine DLL3
T2 sequence (looked up): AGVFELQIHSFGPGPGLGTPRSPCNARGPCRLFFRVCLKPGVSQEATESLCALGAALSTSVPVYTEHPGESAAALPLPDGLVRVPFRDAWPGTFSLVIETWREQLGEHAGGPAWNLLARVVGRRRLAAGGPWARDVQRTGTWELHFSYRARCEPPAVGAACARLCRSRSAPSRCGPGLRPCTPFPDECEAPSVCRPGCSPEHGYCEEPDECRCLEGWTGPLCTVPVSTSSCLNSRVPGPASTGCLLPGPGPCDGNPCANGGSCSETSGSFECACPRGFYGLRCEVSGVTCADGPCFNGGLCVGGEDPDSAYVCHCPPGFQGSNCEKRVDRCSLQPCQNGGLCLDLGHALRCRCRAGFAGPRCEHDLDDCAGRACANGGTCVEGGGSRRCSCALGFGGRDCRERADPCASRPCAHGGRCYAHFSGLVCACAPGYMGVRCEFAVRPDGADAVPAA

T3: human DLL3 (human, UniProt Q9NYJ7 27-492, limits assumed)
T3 construct: also called hDLL3; Delta-like protein 3
T3 sequence (looked up): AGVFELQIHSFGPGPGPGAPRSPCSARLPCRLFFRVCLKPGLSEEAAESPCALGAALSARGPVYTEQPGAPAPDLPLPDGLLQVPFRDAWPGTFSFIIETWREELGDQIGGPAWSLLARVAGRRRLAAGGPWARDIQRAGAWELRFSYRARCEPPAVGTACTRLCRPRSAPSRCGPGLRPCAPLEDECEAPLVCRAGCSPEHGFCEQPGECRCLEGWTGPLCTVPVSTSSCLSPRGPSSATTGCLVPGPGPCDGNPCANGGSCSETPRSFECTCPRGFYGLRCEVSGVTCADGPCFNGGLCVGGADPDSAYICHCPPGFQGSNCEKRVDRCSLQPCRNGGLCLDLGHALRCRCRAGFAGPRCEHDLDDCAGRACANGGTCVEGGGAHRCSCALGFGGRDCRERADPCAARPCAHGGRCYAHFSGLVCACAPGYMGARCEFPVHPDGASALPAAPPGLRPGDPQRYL


Experiments:
[1] = target: T1, DLL3 on cells (SHP-77, NCI-H82, …); test: flow cytometry on SHP-77 cells, Geomeans RL1-H; p-SCN-Bn-DOTA conjugate against the unconjugated VHHFc
mouse DLL3 = target: T2, mouse DLL3; test: ELISA
[2] = target: T1, DLL3 on cells (SHP-77, NCI-H82, …); test: flow cytometry on SHP-77 cells, Geomeans RL1-H
[3] = target: T1, DLL3 on cells (SHP-77, NCI-H82, …); test: flow cytometry on SHP-77 cells, Geomeans RL1-H; remark: listed apart in the source
human DLL3 = target: T3, human DLL3; test: ELISA

Row | Binder | EC50 (read off the curve) [1] | EC50 (read off the curve) [2] | further results
1 | 107_zu2 Conjugate (Fc fusion, conjugated to p-SCN-Bn-DOTA, chelator-antibody ratio of 3-5 (lysine-based conjugation)) QVQLVESGGGLVQPGGSLRLSCAASDRTFSSYAVGWFRQAPGQGLEFVAAISWNGGRTLYTDSVTGRFTISRDNSKNTLYLQMNSLRAEDTAVYYCAARPAAPTRRLEYDYWGQGTLVTVSSEPKSSDKTHTCPPCPAPEAEGAPSVFLFPPKPKDTLMISRTPEVTCVVVDVSHEDPEVKFNWYVDGVEVHNAKTKPREEQYNSTYRVVSVLTVLHQDWLNGKEYKCKVSNKALPSSIEKTISKAKGQPREPQVYTLPPSREEMTKNQVSLTCLVKGFYPSDIAVEWESNGQPENNYKTTPPVLDSDGSFFLYSKLTVDKSRWQQGNVFSCSVMHEALHNQYTQKSLSLSPG | ~0.1 nM |  | 
2 | 186_zu1 (Fc fusion, Humanized VHH-Fc) QVQLVESGGGLVQPGGSLRLSCAASGFDFSTYTVNWFRQAPGQGLEAVARISSTGTTTNYANSAKGRFTISRDNSKNTLYLQMNSLRAEDTAVYYCAAERFDSNYWGQGTLVTVSSEPKSSDKTHTCPPCPAPEAEGAPSVFLFPPKPKDTLMISRTPEVTCVVVDVSHEDPEVKFNWYVDGVEVHNAKTKPREEQYNSTYRVVSVLTVLHQDWLNGKEYKCKVSNKALPSSIEKTISKAKGQPREPQVYTLPPSREEMTKNQVSLTCLVKGFYPSDIAVEWESNGQPENNYKTTPPVLDSDGSFFLYSKLTVDKSRWQQGNVFSCSVMHEALHNQYTQKSLSLSPG |  | ~0.3 nM | binding result (mouse DLL3): no binding
3 | 186_zu2 conjugated to p-SCN-Bn-DOTA (Fc fusion, conjugated to p-SCN-Bn-DOTA, chelator-antibody ratio of 3-5; lysine in FW2 (printed position 52), Humanized VHHFc conjugate) QVQLVESGGGLVQPGGSLRLSCAASGFDFSTYTVNWFRQAPGQGLEKVARISSTGTTTNYANSAKGRFTISRDNSKNTLYLQMNSLRAEDTAVYYCAAERFDSNYWGQGTLVTVSSEPKSSDKTHTCPPCPAPEAEGAPSVFLFPPKPKDTLMISRTPEVTCVVVDVSHEDPEVKFNWYVDGVEVHNAKTKPREEQYNSTYRVVSVLTVLHQDWLNGKEYKCKVSNKALPSSIEKTISKAKGQPREPQVYTLPPSREEMTKNQVSLTCLVKGFYPSDIAVEWESNGQPENNYKTTPPVLDSDGSFFLYSKLTVDKSRWQQGNVFSCSVMHEALHNQYTQKSLSLSPG |  |  | binding result [1]: binds
4 | 186_zu1 conjugated to p-SCN-Bn-DOTA (Fc fusion, conjugated to p-SCN-Bn-DOTA, chelator-antibody ratio of 3-5, Humanized VHHFc conjugate) QVQLVESGGGLVQPGGSLRLSCAASGFDFSTYTVNWFRQAPGQGLEAVARISSTGTTTNYANSAKGRFTISRDNSKNTLYLQMNSLRAEDTAVYYCAAERFDSNYWGQGTLVTVSSEPKSSDKTHTCPPCPAPEAEGAPSVFLFPPKPKDTLMISRTPEVTCVVVDVSHEDPEVKFNWYVDGVEVHNAKTKPREEQYNSTYRVVSVLTVLHQDWLNGKEYKCKVSNKALPSSIEKTISKAKGQPREPQVYTLPPSREEMTKNQVSLTCLVKGFYPSDIAVEWESNGQPENNYKTTPPVLDSDGSFFLYSKLTVDKSRWQQGNVFSCSVMHEALHNQYTQKSLSLSPG | ~0.3 nM |  | 
5 | 186_zu2 (Fc fusion, Humanized VHH-Fc) QVQLVESGGGLVQPGGSLRLSCAASGFDFSTYTVNWFRQAPGQGLEKVARISSTGTTTNYANSAKGRFTISRDNSKNTLYLQMNSLRAEDTAVYYCAAERFDSNYWGQGTLVTVSSEPKSSDKTHTCPPCPAPEAEGAPSVFLFPPKPKDTLMISRTPEVTCVVVDVSHEDPEVKFNWYVDGVEVHNAKTKPREEQYNSTYRVVSVLTVLHQDWLNGKEYKCKVSNKALPSSIEKTISKAKGQPREPQVYTLPPSREEMTKNQVSLTCLVKGFYPSDIAVEWESNGQPENNYKTTPPVLDSDGSFFLYSKLTVDKSRWQQGNVFSCSVMHEALHNQYTQKSLSLSPG |  | ~0.1 nM | binding result (mouse DLL3): no binding
6 | 126_zu1 Conjugate (Fc fusion, conjugated to p-SCN-Bn-DOTA, chelator-antibody ratio of 3-5 (lysine-based conjugation)) QVQLVESGGGLVQPGGSLRLSCAASGITFSMYSMSWFRQAPGQGLEAVAATTTFGSTNYADSVKGRFTISRDNSKNTLYLQMNSLRAEDTAVYYCAARFTSEEYWGQGTLVTVSSEPKSSDKTHTCPPCPAPEAEGAPSVFLFPPKPKDTLMISRTPEVTCVVVDVSHEDPEVKFNWYVDGVEVHNAKTKPREEQYNSTYRVVSVLTVLHQDWLNGKEYKCKVSNKALPSSIEKTISKAKGQPREPQVYTLPPSREEMTKNQVSLTCLVKGFYPSDIAVEWESNGQPENNYKTTPPVLDSDGSFFLYSKLTVDKSRWQQGNVFSCSVMHEALHNQYTQKSLSLSPG |  |  | binding result [1]: binds
7 | 126_zu2 Conjugate (Fc fusion, conjugated to p-SCN-Bn-DOTA, chelator-antibody ratio of 3-5 (lysine-based conjugation)) QVQLVESGGGLVQPGGSLRLSCAASGITFSMYSMSWFRQAPGQGLELVAATTTFGSTNYADSVKGRFTISRDNSKNTLYLQMNSLRAEDTAVYYCAARFTSEEYWGQGTLVTVSSEPKSSDKTHTCPPCPAPEAEGAPSVFLFPPKPKDTLMISRTPEVTCVVVDVSHEDPEVKFNWYVDGVEVHNAKTKPREEQYNSTYRVVSVLTVLHQDWLNGKEYKCKVSNKALPSSIEKTISKAKGQPREPQVYTLPPSREEMTKNQVSLTCLVKGFYPSDIAVEWESNGQPENNYKTTPPVLDSDGSFFLYSKLTVDKSRWQQGNVFSCSVMHEALHNQYTQKSLSLSPG | ~0.1 nM |  | 
8 | 126 (Fc fusion, Parental camelid VHH-Fc) QVQLVESGGGMVQPGGSLRLSCAASGITFSMYSMSWYRQPPGKQRELVAATTTFGSTNYADSVKGRFTISRDNAKNTVYLQMNSLKPEDTAVYLCNARFTSEEYWGQGTQVTVSSEPKSSDKTHTCPPCPAPEAEGAPSVFLFPPKPKDTLMISRTPEVTCVVVDVSHEDPEVKFNWYVDGVEVHNAKTKPREEQYNSTYRVVSVLTVLHQDWLNGKEYKCKVSNKALPSSIEKTISKAKGQPREPQVYTLPPSREEMTKNQVSLTCLVKGFYPSDIAVEWESNGQPENNYKTTPPVLDSDGSFFLYSKLTVDKSRWQQGNVFSCSVMHEALHNQYTQKSLSLSPG |  | ~0.1 nM | EC50 (read off the curve) [3]: ~0.1 nM
9 | 126 Conjugate (Fc fusion, conjugated to p-SCN-Bn-DOTA, chelator-antibody ratio of 3-5 (lysine-based conjugation)) QVQLVESGGGMVQPGGSLRLSCAASGITFSMYSMSWYRQPPGKQRELVAATTTFGSTNYADSVKGRFTISRDNAKNTVYLQMNSLKPEDTAVYLCNARFTSEEYWGQGTQVTVSSEPKSSDKTHTCPPCPAPEAEGAPSVFLFPPKPKDTLMISRTPEVTCVVVDVSHEDPEVKFNWYVDGVEVHNAKTKPREEQYNSTYRVVSVLTVLHQDWLNGKEYKCKVSNKALPSSIEKTISKAKGQPREPQVYTLPPSREEMTKNQVSLTCLVKGFYPSDIAVEWESNGQPENNYKTTPPVLDSDGSFFLYSKLTVDKSRWQQGNVFSCSVMHEALHNQYTQKSLSLSPG | ~0.2 nM |  | 
10 | 126_zu1 (Fc fusion, Humanized VHH-Fc) QVQLVESGGGLVQPGGSLRLSCAASGITFSMYSMSWFRQAPGQGLEAVAATTTFGSTNYADSVKGRFTISRDNSKNTLYLQMNSLRAEDTAVYYCAARFTSEEYWGQGTLVTVSSEPKSSDKTHTCPPCPAPEAEGAPSVFLFPPKPKDTLMISRTPEVTCVVVDVSHEDPEVKFNWYVDGVEVHNAKTKPREEQYNSTYRVVSVLTVLHQDWLNGKEYKCKVSNKALPSSIEKTISKAKGQPREPQVYTLPPSREEMTKNQVSLTCLVKGFYPSDIAVEWESNGQPENNYKTTPPVLDSDGSFFLYSKLTVDKSRWQQGNVFSCSVMHEALHNQYTQKSLSLSPG |  |  | binding result (human DLL3): binds; binding result (mouse DLL3): no binding; binding result [3]: binds
11 | 186 (Fc fusion, Parental camelid VHH-Fc) QVQVVESGGGLVQPGGSLTLSCAASGFDFSTYTVNWYRQAPGKEREKVARISSTGTTTNYANSAKGRFTLSRDNAKNRVYLQMNNLKPEDTAVYFCNFERFDSNYWGQGTQVTVSSEPKSSDKTHTCPPCPAPEAEGAPSVFLFPPKPKDTLMISRTPEVTCVVVDVSHEDPEVKFNWYVDGVEVHNAKTKPREEQYNSTYRVVSVLTVLHQDWLNGKEYKCKVSNKALPSSIEKTISKAKGQPREPQVYTLPPSREEMTKNQVSLTCLVKGFYPSDIAVEWESNGQPENNYKTTPPVLDSDGSFFLYSKLTVDKSRWQQGNVFSCSVMHEALHNQYTQKSLSLSPG |  | ~0.1 nM | 
